Test results reported in paper PMC9909426.

Biological target: Orange Carotenoid Protein variant OCP-W288_BTA (Synechocystis sp. PCC 6803 OCP with Trp288 replaced by 3-benzothienyl-L-alanine) (Synechocystis sp. PCC 6803) (UniProt P74102)
Test: SEC; preparative SEC, Superdex 200 Increase 10/300, after IMAC and HIC; pink, earlier eluting fraction OCP-W288_BTA(P)

- stoichiometry N: 2
Substance: Orange Carotenoid Protein variant OCP-W288_BTA (Synechocystis sp. PCC 6803 OCP with Trp288 replaced by 3-benzothienyl-L-alanine) (from UniProt P74102 1-317) (natural protein)
